Results taken from publication PMC10023680 (2023).

B1: RhoG (residues 1-184) (domain or fragment)
chain: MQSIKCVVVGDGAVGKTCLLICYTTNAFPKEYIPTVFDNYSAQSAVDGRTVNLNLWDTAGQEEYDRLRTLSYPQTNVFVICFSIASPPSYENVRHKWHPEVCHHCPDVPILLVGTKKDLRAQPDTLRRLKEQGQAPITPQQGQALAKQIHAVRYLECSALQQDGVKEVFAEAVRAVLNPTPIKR

Legend:
Assay in all cases: SPR
[1] = biological target: GST-tagged ELMO1-RBD (residues 1-113) Y18A (human, UniProt Q92556 1-113, Y18A)
[2] = biological target: GST-tagged ELMO1-RBD (residues 1-113) K20E (human, UniProt Q92556 1-113, K20E)
RhoG (residues 1-184) = biological target: B1
Chain of RhoG (residues 1-184) (P84095 1-184): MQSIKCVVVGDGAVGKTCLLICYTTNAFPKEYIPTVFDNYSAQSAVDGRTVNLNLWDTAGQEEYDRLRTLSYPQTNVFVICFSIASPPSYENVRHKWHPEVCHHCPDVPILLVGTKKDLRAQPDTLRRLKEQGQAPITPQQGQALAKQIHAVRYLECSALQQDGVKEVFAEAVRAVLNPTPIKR

In the case of B1, the Kd [1] is reported as 19.3 µM and the Kd [2] is reported as 18.2 µM.

B2: GST-tagged ELMO1-RBD (residues 1-113), wild-type (domain or fragment)
chain: MPPPADIVKVAIEWPGAYPKLMEIDQKKPLSAIIKEVCDGWSLANHEYFALQHADSSNFYITEKNRNEIKNGTILRLTTSPAQNAQQLHERIQSSSMDAKLEALKDLASLSRD
B2 showed a Kd (RhoG (residues 1-184)) of 8.4 µM.
